Laboratory results taken from US20100150924A1 (published 2010).
Blank lines part the entries; values can stand above or below the binder they belong to.

Assays:
[1] = molecular target: T1, endogenous gliomedin on cultured rat Schwann cells (rat, UniProt Q80WL1 1-549); test: co-clustering on rat Schwann cells after aggregation of Necl1-Fc with a secondary antibody to human Fc
T1 construct: whole, on cells; also called Gldn
T1 sequence (looked up): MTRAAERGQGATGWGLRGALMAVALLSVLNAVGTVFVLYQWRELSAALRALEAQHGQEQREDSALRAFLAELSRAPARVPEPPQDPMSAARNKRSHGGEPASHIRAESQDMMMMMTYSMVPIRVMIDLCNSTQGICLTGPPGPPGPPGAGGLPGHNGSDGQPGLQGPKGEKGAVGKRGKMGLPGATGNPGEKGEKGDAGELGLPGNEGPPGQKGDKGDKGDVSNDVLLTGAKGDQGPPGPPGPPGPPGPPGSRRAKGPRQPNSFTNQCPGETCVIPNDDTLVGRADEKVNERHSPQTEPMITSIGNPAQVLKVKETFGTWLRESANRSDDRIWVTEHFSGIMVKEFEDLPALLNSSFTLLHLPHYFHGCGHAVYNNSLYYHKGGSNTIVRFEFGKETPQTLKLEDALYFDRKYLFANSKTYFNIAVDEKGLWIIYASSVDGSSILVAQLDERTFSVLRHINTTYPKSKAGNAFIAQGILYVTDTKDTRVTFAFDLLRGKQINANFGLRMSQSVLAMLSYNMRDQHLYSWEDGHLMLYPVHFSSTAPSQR
Description: (§1) Binding experiments were done by incubating the cells with medium containing different the Fc-fusions proteins pre-incubated with anti human Fc-Cy3 as described previously (Eshed et al., 2005). For clustering experiments, purified DRG-neurons or isolated Schwann cells were incubated with medium containing the respective Fc-fusion protein as described above, washed once and grown for additional 24 (DRG) or 4 hours (Schwann) before fixing. Fc-perturbation experiments were preformed by adding […] purified proteins to the medium of dissociated DRG cultures 2 days before the induction of myelination. Fresh medium containing the Fc-fusion proteins was replaced every second day and the cultures were fixed and stained after 11-12 days of myelination.
To further determine whether Necl4 is the Schwann cell receptor for axonal Necls, we examined the ability of Necl1-Fc and Necl3-Fc to bind Schwann cells that were transfected with Necl4-specific siRNAs to block its expression (FIG. 10B). In contrast to Schwann cells transfected with a control siRNA, down-regulation of Necl4 in Schwann cells by siRNA abolished the binding of Necl1-Fc and Necl3-Fc. […] In a reciprocal set of experiments, reduction of Necl1 expression in DRG neurons by transfection of siRNA abolished the binding of Necl4-Fc (FIG. 11).

[2] = molecular target: T2, endogenous neurofascin on cultured DRG neurons (rat, UniProt P97685 25-1240); test: co-clustering on DRG neurons after aggregation of Necl4-Fc
T2 construct: whole, on cells
T2 sequence (looked up): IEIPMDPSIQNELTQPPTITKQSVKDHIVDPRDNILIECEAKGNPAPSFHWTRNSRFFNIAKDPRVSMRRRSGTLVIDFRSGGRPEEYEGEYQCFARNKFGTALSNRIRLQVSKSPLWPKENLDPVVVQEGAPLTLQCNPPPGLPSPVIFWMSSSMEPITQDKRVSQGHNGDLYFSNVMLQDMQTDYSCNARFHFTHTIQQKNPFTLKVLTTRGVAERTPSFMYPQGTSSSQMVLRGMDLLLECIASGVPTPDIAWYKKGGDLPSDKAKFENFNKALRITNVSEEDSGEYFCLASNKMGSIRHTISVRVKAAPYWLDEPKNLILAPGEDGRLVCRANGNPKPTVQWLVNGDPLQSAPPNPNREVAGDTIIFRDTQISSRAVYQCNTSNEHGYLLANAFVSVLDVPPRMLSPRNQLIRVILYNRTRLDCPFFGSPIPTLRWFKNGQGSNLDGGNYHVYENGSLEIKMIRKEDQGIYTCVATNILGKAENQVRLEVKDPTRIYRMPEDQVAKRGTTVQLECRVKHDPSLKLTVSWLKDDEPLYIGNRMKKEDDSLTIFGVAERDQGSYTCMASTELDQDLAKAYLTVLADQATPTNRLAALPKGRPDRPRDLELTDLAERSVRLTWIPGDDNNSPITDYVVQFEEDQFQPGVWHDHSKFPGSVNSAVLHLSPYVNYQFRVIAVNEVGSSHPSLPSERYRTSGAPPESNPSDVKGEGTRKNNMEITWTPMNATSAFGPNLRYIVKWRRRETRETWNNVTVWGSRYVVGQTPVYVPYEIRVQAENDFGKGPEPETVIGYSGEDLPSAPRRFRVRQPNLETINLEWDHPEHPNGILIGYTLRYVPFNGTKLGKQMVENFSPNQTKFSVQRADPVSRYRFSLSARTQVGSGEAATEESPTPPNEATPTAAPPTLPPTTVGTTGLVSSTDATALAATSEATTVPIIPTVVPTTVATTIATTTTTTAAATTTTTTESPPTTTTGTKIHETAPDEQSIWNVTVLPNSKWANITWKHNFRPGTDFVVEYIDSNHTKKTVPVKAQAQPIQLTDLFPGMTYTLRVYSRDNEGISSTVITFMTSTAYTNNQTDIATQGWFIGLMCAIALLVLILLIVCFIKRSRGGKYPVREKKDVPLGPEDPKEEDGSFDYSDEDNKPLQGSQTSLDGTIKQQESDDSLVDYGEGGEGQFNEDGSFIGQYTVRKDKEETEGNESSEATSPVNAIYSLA
Description: as §1

binding result [1]: no binding
B1: Necl1-Fc (extracellular domain of Necl1 fused to the constant region of human IgG1) (Fc fusion)
chain: NLSQDGYWQEQDLELGTPAPLEEALSSTVWSNPDLLASQDSQPWTSDETVVAGGTVVLKCQVKDHEDSSLQWSNPAQQTLYFGEKRALRDNRIQLVSSTPHELSISISNVALADEGEYTCSIFTMPVRTAKSLVTVLGIPQKPIITGYKSSLREKETATLNCQSSGSKPAAQLAWRKGDQELHGDQTRIQEDPNGKTFTVSSSVSFQVTRDDDGANVVCSVNHESLKGADRSTSQRIEVLYTPTAMIRPEPAHPREGQKLLLHCEGRGNPVPQQYVWVKEGSEPPLKMTQESALIFPFLNKSDSGTYGCTATSNMGSYTAYFTLNVNDPSPVPSSSST
notes: Produced in HEK 293T cells; also called soluble Necl1; Nel1-Fc; not shown: constant region (Fc) of human IgG1

binding result [2]: no binding
B2: Necl4-Fc (extracellular domain of Necl4 fused to the constant region of human IgG1) (Fc fusion)
chain: QEVQTENVTVAEGGVAEITCRLHQYDGSIVVIQNPARQTLFFNGTRALKDERFQLEEFSPRRVRIRLSDARLEDEGGYFCQLYTEDTHHQIATLTVLVAPENPVVEVREQAVEGGEVELSCLVPRSRPAAVLRWYRDRKELKGVSSGQENGKVWSVASTVRFRVDRKDDGGIVICEAQNQALPSGHSKQTQYVLDVQYSPTARIHASQAVVREGDTLVLTCAVTGNPRPNQIRWNRGNESLPERAEAVGETLTLPGLVSADNGTYTCEAANKHGHARALYVLVVYDPGAVVEAQTSVPY
notes: also called soluble Necl-4; soluble Necl4; not shown: constant region (Fc) of human IgG1
